Source: patent publication US20130040894A1, “INHIBITION OR ACTIVATION OF SERINE/THREONINE ULK3 KINASE ACTIVITY” (TALLINN UNIVERSITY OF TECHNOLOGY, priority 2009, published 2013)

Assays:
GLI3 = assay: In vitro kinase assay, phosphorylation of GLI3; type: biochemical; details: FLAG-tagged GLI3 immunoprecipitated from HEK293 cells
Procedure: HEK293 cells were transfected with 13.5 μg of FLAG-tagged constructs expressed GLI1, GLI2, GLI3, ULK3, ULK3(K44R), ULK3(K139R) or FLAG-CMV-4 empty vector on 10 cm plates. The cells were lysed with 0.5 ml of Lysis Buffer (50 mM Tris HCl, pH 7.4, 150 mM NaCl, 1 mM EDTA, 1% Triton X-100) containing protease inhibitor cocktail (PIC) (Roche Applied Science). The lysates were centrifuged for 15 min at 4° C. and 15000 g, and the supernatants were used for immunoprecipitation (IP). IP was performed using anti-FLAG-M2 affinity gel (Sigma-Aldrich) in batch format according to the manufacture's instructions. Immune complexes were washed three times with 500 μl of Kinase Buffer (KB) (50 mM HEPES, pH 7.4, 20 mM MgCl2, 25 μM ATP) and resuspended in 12.5 μl of KB. One fifth of the immuno-complexes was subjected to WB and the rest was used for the kinase assay.
Kinase reactions were carried out in KB in a total volume of 20 μl of in the presence of 1 μCi of [γ-^32P]ATP per reaction. We used 1 μl of the immunoprecipitated ULK3, ULK3(K44R) or ULK3(K139R) mixed with 5 μl of the GLI-M2 immunocomplexes or 5 μl of bacterially expressed and purified His-GLI1 fragments. Kinase reactions were held at 30° C. for 30 min and terminated by adding of 5 μl of 4× Laemmli Sample Buffer. Proteins were resolved by SDS-PAGE. […]

[1] = tested on: GLI1GFP localization in NIH3T3 cells; assay: Immunofluorescence assay, subcellular localization of GFP-tagged GLI1; type: cell-based, mouse; details: coexpressed with GLI1GFP in NIH3T3 cells
Procedure: (§1) NIH3T3 cells were transfected with GLI1GFP and FLAG-tagged expression constructs for ULK3 or ULK3(K139R) in ratio 1:1 on 8-chamber slides (Falcon, BD Biosciences, San Jose Calif., USA). The cells were fixed with 4% paraformaldehyde and washed three times for 5 min with Stain Wash Medium (SWM) (0.5% BSA and 0.01% NaN3 in PBS). Subsequent permeabilization of cells was performed at RT by 10-min incubation in. PBS supplemented with 0.5% Triton X-100. Afterwards, the cells were washed three times for 5 min with SWM, blocked for 30 min in PBS containing 5% bovine serum albumin (BSA), and incubated with mouse monoclonal M2-anti-FLAG antibody (diluted 1:1000 in SWM) for 1 h at RT with gentle agitation. After three washes of 10 min with SWM, the cells were incubated for 30 min with secondary antibody Alexa-Fluor 568 (Invitrogen) (diluted 1:500 in SWM) mixed with nuclear stain Hoechst 33342 (diluted 1:100). Cells were washed twice with SWM and mounted with Mowiol 4-88 (Sigma-Aldrich). GLI1GFP protein localization was assessed in at least 200 FLAG-positive cells under a fluorescent microscope Olympus BX61 with UPLan SApo 40× objective, and the experiment was repeated three times. Confocal images were obtained with a Zeiss LSM-510 META confocal laser-scanning microscope (Carl Zeiss MicroImaging GmbH, Germany) equipped with Plan-Apochromat 63×/1.4 oil immersion objective.
Next we examined if overexpression of ULK3 kinase influences the subcellular localization of GLI1 and GLI2 proteins. […] FLAG-tagged ULK3 and ULK3(K139R) (or respective empty vector) were coexpressed with GFP-tagged GLI1 and GLI2 in NIH3T3 cells. Subcellular localization of GLI1 and GLI2 was determined, and average values were calculated from three independent experiments. ULK3 and its mutant remained almost completely cytoplasmic. GFP-tagged GLI2 localized predominantly in the nucleus and its localization was not altered by ULK3 or ULK3(K139R) (data not shown). Overexpressed GLI1GFP was detected both in cytoplasm and nucleus (FIG. 3A). […] Under the influence of ULK3 localization of GLI1 was shifted.

[2] = tested on: GFP-tagged GLI2 localization in NIH3T3 cells; assay: Immunofluorescence assay, subcellular localization of GFP-tagged GLI2; type: cell-based, mouse; details: coexpressed with GFP-tagged GLI2 in NIH3T3 cells
Procedure: as §1, with “After three washes of 10 min with SWM, the cells were incubated for 30 min with secondary antibody Alexa-Fluor 568 (Invitrogen) (diluted 1:500 in SWM) mixed with nuclear stain Hoechst 33342 (diluted 1:100). Cells were washed twice with SWM and mounted with Mowiol 4-88 (Sigma-Aldrich).” left out, “Confocal images were obtained with a Zeiss LSM-510 META confocal laser-scanning microscope (Carl Zeiss MicroImaging GmbH, Germany) equipped with Plan-Apochromat 63×/1.4 oil immersion objective.” left out
Next we examined if overexpression of ULK3 kinase influences the subcellular localization of GLI1 and GLI2 proteins. […] Subcellular localization of GLI1 and GLI2 was determined, and average values were calculated from three independent experiments. […] Overexpressed GLI1GFP was detected both in cytoplasm and nucleus (FIG. 3A). […]

[3] = tested on: GLI1 in nuclear extracts of Cos1 cells; assay: Cell fractionation analysis with WB; type: cell-based, primate; details: cotransfected with FLAG-tagged GLI1 in Cos1 cells, lamin A/C loading control
Procedure: Cos1 cells were transfected with FLAG-tagged expression constructs for GLI1 combined with ULK3, ULK3(K139R) or empty vector in ratio 1:1 on 10 cm plates. Nuclear and whole cell extracts (NE and WCE, respectively) were prepared as described in [36]. All extracts were normalized for protein amounts measured using […] kit (Thermo Scientific). A total 10 μg of protein were separated by SDS-PAGE and transferred to the PVDF membrane (Millipore, Billerica Mass., USA). The membrane was segmented according to the expected size of the detected proteins. Obtained strips were probed with the appropriate antibodies.
WB was performed using a non-blocking technique as described in [37]. Mouse monoclonal M2-anti-FLAG antibody (Sigma-Aldrich) was used for detection of FLAG-tagged GLI1, GLI2, GLI3, ULK3, ULK3(K44R) and ULK3(K139R) by WB in dilution 1:2000. Lamin A/C was detected with mouse monoclonal anti-Lamin A/C antibody (Upstate, Billerica Mass., USA) diluted 1:1000. Mouse monoclonal anti-His antibody (Novagen, Darmstadt, Germany) diluted 1:1500 was used for detection of bacterially expressed and purified GLI1 fragements. […]
To confirm the data from the immunofluorescent staining, we performed cell fractionation analysis. […] Expression of lamin A/C was analyzed as a loading control. ULK3 and ULK3(K139R) were detected mostly in WCEs.

Molecule	phosphorylation of GLI3 (GLI3)	cells that retained GLI1 in the cytoplasm ([1]; average of three experiments) [%]	cells with GLI1 mostly in the nucleus ([1]; average of three experiments) [%]	cells with uniform distribution of GLI1 ([1]; average of three experiments) [%]	influence on GLI2 subcellular localization [2]	amount of GLI1 in nuclear extracts [3]	influence on GLI1 subcellular localization [1]
ULK3: human serine/threonine kinase, 472 amino acids (SEQ ID NO: 1), overexpressed from cloned cDNA or immunopurified FLAG-tagged (protein, listed as Homo sapiens, PEPTIDE (1)..(472) ULK3) MAGPGWGPPRLDGFILTERLGSGTYATVYKAYAKKDTREVVAIKCVAKKSLNKASVENLLTEIEILKGIRHPHIVQLKDFQWDSDNIYLIMEFCAGGDLSRFIHTRRILPEKVARVFMQQLASALQFLHERNISHLDLKPQNILLSSLEKPHLKLADFGFAQHMSPWDEKHVLRGSPLYMAPEMVCQRQYDARVDLWSMGVILYEALFGQPPFASRSFSELEEKIRSNRVIELPLRPLLSRDCRDLLQRLLERDPSRRISFQDFFAHPWVDLEHMPSGESLGRATALVVQAVKKDQEGDSAAALSLYCKALDFFVPALHYEVDAQRKEAIKAKVGQYVSRAEELKAIVSSSNQALLRQGTSARDLLREMARDKPRLLAALEVASAAMAKEEAAGGEQDALDLYQHSLGELLLLLAAEPPGRRRELLHTEVQNLMARAEYLKEQVKMRESRWEADTLDKEGLSESVRSSCTLQ	significantly lower intensity as compared to GLI2	2	70	25	not altered	retained most of the GLI1 in the nuclei	
ULK3(K139R): kinase-deficient ULK3 mutant with Lysine at position 139 mutated to Arginine (SEQ ID NO:7) (protein, MUTAGEN (1)..(472) mutated ULK3 protein ULK3 (K139R)) MAGPGWGPPRLDGFILTERLGSGTYATVYKAYAKKDTREVVAIKCVAKKSLNKASVENLLTEIEILKGIRHPHIVQLKDFQWDSDNIYLIMEFCAGGDLSRFIHTRRILPEKVARVFMQQLASALQFLHERNISHLDLRPQNILLSSLEKPHLKLADFGFAQHMSPWDEKHVLRGSPLYMAPEMVCQRQYDARVDLWSMGVILYEALFGQPPFASRSFSELEEKIRSNRVIELPLRPLLSRDCRDLLQRLLERDPSRRISFQDFFAHPWVDLEHMPSGESLGRATALVVQAVKKDQEGDSAAALSLYCKALDFFVPALHYEVDAQRKEAIKAKVGQYVSRAEELKAIVSSSNQALLRQGTSARDLLREMARDKPRLLAALEVASAAMAKEEAAGGEQDALDLYQHSLGELLLLLAAEPPGRRRELLHTEVQNLMARAEYLKEQVKMRESRWEADTLDKEGLSESVRSSCTLQ					not altered	significantly lower amounts of GLI1	did not influence
